Our source for the K50 (50% binding concentration), signal as percent of the signal of the control and K50 (50% binding concentration; column head reads KD) values is patent US20150158934A1.

Experiment [1] deals with gp140CN54 (subtype B'/C), gp140 envelope glycoprotein from the HIV-1 group M CRF07-B/C-clade isolate 97CN54 (HIV-1). The experiment in a line: binding of VHH to gp140 CN54 (method not given).
Experiment [2] deals with gp140UG37 (subtype A), gp140 envelope glycoprotein from the HIV-1 group M A-clade isolate 92UG037 (HIV-1). The experiment in a line: binding of VHH to gp140 92UG (method not given).
Experiment [3] concerns the target gp120Yu-2 109-428 (HIV-1). The experiment in a line: competition ELISA on coated gp120Yu-2 109-428; periplasmic VHH first, then competitor 17b detected.
Experiment [4] concerns the target gp120Yu-2 109-428 (HIV-1). The experiment in a line: competition ELISA on coated gp120Yu-2 109-428; periplasmic VHH first, then competitor b12 detected. A general note: ELISA stands for enzyme-linked immunosorbent assay.
Experiment [5] deals with gp140UG37 (subtype A), gp140 envelope glycoprotein from the HIV-1 group M A-clade isolate 92UG037 (HIV-1). Briefly: binding of purified VHH to gp140 92UG (method not given).
Experiment [6] addresses gp140CN54 (subtype B'/C), gp140 envelope glycoprotein from the HIV-1 group M CRF07-B/C-clade isolate 97CN54 (HIV-1). The experiment in a line: binding of purified VHH to gp140 CN54 (method not given).
The target in experiment [7] is gp120Yu-2 109-428 (HIV-1). Briefly: competition ELISA on coated gp120Yu-2 109-428; periplasmic VHH first, then competitor sCD4 detected.

Changes are numbered by the printed parent chain. A value given as a limit tells only on which side of the number the result lay.

B1: J3_CDR2_fill_1 (site directed mutagenesis) (VHH)
VHH: EVQLVESGGGLVQAGGFLRLSCELRGSIFNQYAMAWFRQAPGKEREFVAGMSGAVPHYGEFVKGRFTISRDNAKSTVYLQMSSLKPEDTAIYFCARSKSTYISYNSNGYDYWGRGTQVTVSS
As for B1, the K50 (50% binding concentration) in experiment [1] was over 100 µg/mL; in experiment [2], over 10 µg/mL.

B2: 3E3mod-long-CDR2 (VHH)
VHH: QVQLQESGGGLVQAGGSLRLSCAASQFTLESYAIGWFRQAPGKDSEGVACISSSDGSTYYADSVKGRFTISRDNAKNTVYLQMNSLKPEDTAVYHCATSGAGSYCTLRAFGSWGQGTQVTVSS
The molecule B2 gave a K50 (50% binding concentration) in experiment [2] of over 10 µg/mL.

B3: L1719E1 (VHH)
VHH: EVQLVESGGGLVRHGDSLRLSCLVSGRTTSVYATGWFRQAPGKEREFVAAISWSGGYTNYADSVKGRFTISRDNAKNTVFLQMNSLKPEDTAVYYCAADRNPYRGSNNANAYDYWGQGTQVTVSS
In experiment [3], B3 had a signal as percent of the signal of the control of under 30%.

B4: L81H9 (VHH)
VHH: EVQLVESGGGLVQAGGSLRLSCVCSGFSSDEYAIGWFRQAPGKEREGVSYISREDGSRHYADSVKGRFTISTDYARNTVYLQMDSLKPEDTGVYYCAAALLGDYVLWLPEYPYNYWGQGTQVTVSS
The molecule B4 registered a signal as percent of the signal of the control in experiment [4] of under 30%.

B5: J3_CDR2_fill_2 (site directed mutagenesis) (VHH)
VHH: EVQLVESGGGLVQAGGFLRLSCELRGSIFNQYAMAWFRQAPGKEREFVAGMSWGAVPHYGEFVKGRFTISRDNAKSTVYLQMSSLKPEDTAIYFCARSKSTYISYNSNGYDYWGRGTQVTVSS
In the case of B5, the K50 (50% binding concentration) in experiment [1] is over 100 µg/mL; in experiment [2] it was over 10 µg/mL.

B6: L8Cj3 Mutant 2 (VHH)
VHH: EVQLVESGGGLVQAGGFLRLSCELRGSIFSQYAMAWFRQAPGKEREFVAGMGAVPHYGEFVKGRFTISRDNAKSTVYLQMSSLKPEDTAIYFCARSKSTYISYNSNGYDYWGRGTQVTVSS
On to B6, for which the K50 (50% binding concentration; column head reads KD) in experiment [5] was 0.04 µg/mL; in experiment [6], 0.18 µg/mL.

B7: L8Cj3 Mutant 6 (VHH)
VHH: B6 VHH with S30N, F92Y
For the molecule B7, the K50 (50% binding concentration; column head reads KD) in experiment [5] was found to be 0.024 µg/mL; in experiment [6], 0.25 µg/mL.

B8: L8Cj3 Mutant 4 (VHH)
VHH: B6 VHH with S30N, G58A, E59D, F60S
In the case of B8, the figures for the K50 (50% binding concentration; column head reads KD) in experiment [5] and in experiment [6] were 0.025 µg/mL and 1.84 µg/mL, respectively.

B9: L8Cj3 Mutant 11 (VHH)
VHH: B6 VHH with S30N, R113Q
Take B9: the K50 (50% binding concentration; column head reads KD) in experiment [5] amounted to 0.019 µg/mL; in experiment [6], 9.26 µg/mL.

B10: L8Cj3 Mutant 13 (VHH)
VHH: B6 VHH with S27R, I28T, S30N
Regarding B10, the results for the K50 (50% binding concentration; column head reads KD) in experiment [5] and in experiment [6] were 0.027 µg/mL and over 100 µg/mL, respectively.

B11: L8Cj3 Mutant 5 (VHH)
VHH: B6 VHH with S30N, I90V
For the molecule B11, the values for the K50 (50% binding concentration; column head reads KD) in experiment [5] and in experiment [6] were 0.028 µg/mL and 1.07 µg/mL, respectively.

B12: L8Cj3 Mutant 7 (VHH)
VHH: B6 VHH with S30N, R95A
With B12, the K50 (50% binding concentration; column head reads KD) in experiment [5] is 0.95 µg/mL; in experiment [6], over 100 µg/mL.

B13: L8Cj3 Mutant 1 (VHH)
VHH: B6 VHH with E23A, L24A, R25S, S30N
In the case of B13, the K50 (50% binding concentration; column head reads KD) came out at 0.058 µg/mL in experiment [5] and 67.8 µg/mL in experiment [6].

B14: L8Cj3 Mutant 9 (VHH)
VHH: B6 VHH with S30N, N104A
On to B14, for which the K50 (50% binding concentration; column head reads KD) in experiment [5] is 0.022 µg/mL; in experiment [6], 0.14 µg/mL.

B15: L8Cj3 Mutant 12 (VHH)
VHH: B6 VHH with E23I, L24Y, S30N
B15: the K50 (50% binding concentration; column head reads KD) in experiment [5] was 0.042 µg/mL; in experiment [6] it was over 100 µg/mL.

B16: L8Cj3 Mutant 10 (VHH)
VHH: B6 VHH with S30N, G107E
Regarding B16, the K50 (50% binding concentration; column head reads KD) in experiment [5] was found to be 0.086 µg/mL; in experiment [6], 12.1 µg/mL.

B17: L8i5 (VHH)
VHH: B6 VHH with L24P, S30N, P55A, S74N, V76A, S81N
In the case of B17, the K50 (50% binding concentration; column head reads KD) in experiment [5] turned out to be 0.048 µg/mL; in experiment [6], 8.54 µg/mL.

B18: L8Cj3 Mutant 8 (VHH)
VHH: B6 VHH with S30N, S98N
Regarding B18, the K50 (50% binding concentration; column head reads KD) came out at 0.02 µg/mL in experiment [5] and 0.36 µg/mL in experiment [6].

B19: L93E3 (VHH)
VHH: EVQLVESGGGLVQPGGSLRLSCAASQFTLESYAIGWFRQAPGKDSEGVACISSSTYYADSVKGRFTISRDNAKNTVYLQMESLKPEDTAVYHCATSGAGSYCTLRAFGSWGQGTQVTVSS
In turn, B19 showed a signal as percent of the signal of the control in experiment [7] of under 30%.
